The values below come from patent US20200033338A1.

Assay [1] deals with Torpedo 39MIR peptide-intein-chitin-binding domain (IChBD) fusion protein (Torpedo). The experiment in a line: Western blot of peptide-IChBD fusion (FIG. 5).
Assay [2] addresses Torpedo 39MIR single mutant A70D, IChBD fusion (Torpedo). The experiment in a line: Western blot of peptide-IChBD fusion (FIG. 5). Background: Immunoblotting shows a protein as a band on a membrane.
Assay [3] concerns the target Torpedo 39MIR single mutant D111Q, IChBD fusion (Torpedo). In words: Western blot of peptide-IChBD fusion (FIG. 5).
The target in assay [4] is Torpedo 39MIR single mutant I75V, IChBD fusion (Torpedo). The experiment in a line: Western blot of peptide-IChBD fusion (FIG. 5).
Sequence of Torpedo 39MIR single mutant I75V, IChBD fusion (Torpedo) (chain, as listed by the source I75V I75V): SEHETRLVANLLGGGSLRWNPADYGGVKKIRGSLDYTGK
Assay [5] deals with Torpedo 39MIR single mutant K115H, IChBD fusion (Torpedo). The experiment in a line: Western blot of peptide-IChBD fusion (FIG. 5).
Sequence of Torpedo 39MIR single mutant K115H, IChBD fusion (Torpedo) (chain, as listed by the source K115H K115H): as the sequence (chain, as listed by the source I75V I75V) above, with V27I, K39H counted along it
Assay [6] concerns the target Torpedo 39MIR single mutant L12F, IChBD fusion (Torpedo). The experiment in a line: Western blot of peptide-IChBD fusion (FIG. 5).
For assay [7], the target named is Torpedo 39MIR single mutant N10K, IChBD fusion (Torpedo). In words: Western blot of peptide-IChBD fusion (FIG. 5).
Sequence of Torpedo 39MIR single mutant N10K, IChBD fusion (Torpedo) (chain, as listed by the source N10K N10K): as the sequence (chain, as listed by the source I75V I75V) above, with N10K, V27I counted along it
The target of assay [8] is Torpedo 39MIR single mutant R66K, IChBD fusion (Torpedo). The experiment in a line: Western blot of peptide-IChBD fusion (FIG. 5).
Sequence of Torpedo 39MIR single mutant R66K, IChBD fusion (Torpedo) (chain, as listed by the source R66K R66K): as the sequence (chain, as listed by the source I75V I75V) above, with R18K, V27I counted along it
Assay [9] addresses Torpedo 39MIR single mutant R79H, IChBD fusion (Torpedo). The experiment in a line: Western blot of peptide-IChBD fusion (FIG. 5).
The target in assay [10] is K10N/D70A human 39MIR double mutant, IChBD fusion (human). In words: Western blot of peptide-IChBD fusion (FIG. 7).
Sequence of K10N/D70A human 39MIR double mutant, IChBD fusion (human) (chain, as listed by the source K10N D70A K10N D70A): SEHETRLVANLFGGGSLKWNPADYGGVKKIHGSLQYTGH
In assay [11] the target is K10N/D70A/V75I/Q111D human 39MIR quadruple mutant, IChBD fusion (human). The experiment in a line: Western blot of peptide-IChBD fusion (FIG. 7).
Sequence of K10N/D70A/V75I/Q111D human 39MIR quadruple mutant, IChBD fusion (human) (chain, as listed by the source K10N D70A V75I Q111D K10N D70A V75I Q111D): as the sequence (chain, as listed by the source K10N D70A K10N D70A) above, with V27I, Q35D counted along it
Assay [12] concerns the target K10N/Q111D human 39MIR double mutant, IChBD fusion (human). The experiment in a line: Western blot of peptide-IChBD fusion (FIG. 7).
Assay [13] deals with K10N/V75I human 39MIR double mutant, IChBD fusion (human). In words: Western blot of peptide-IChBD fusion (FIG. 7).
Sequence of K10N/V75I human 39MIR double mutant, IChBD fusion (human) (chain, as listed by the source K10N V75I K10N V75I): as the sequence (chain, as listed by the source K10N D70A K10N D70A) above, with A22D, V27I counted along it
The target in assay [14] is K10N/V75I/Q111D human 39MIR triple mutant, IChBD fusion (human). In words: Western blot of peptide-IChBD fusion (FIG. 7).
Sequence of K10N/V75I/Q111D human 39MIR triple mutant, IChBD fusion (human) (chain, as listed by the source K10N V75I Q111D K10N V75I Q111D): as the sequence (chain, as listed by the source K10N D70A K10N D70A) above, with A22D, V27I, Q35D counted along it
For assay [15], the target named is Torpedo 39MIR peptide-intein-chitin-binding domain (IChBD) fusion protein (Torpedo). In words: Western blot of peptide-IChBD fusion (FIG. 7).
The target in assay [16] is V75I/Q111D human 39MIR double mutant, IChBD fusion (human). In words: Western blot of peptide-IChBD fusion (FIG. 7).
Sequence of V75I/Q111D human 39MIR double mutant, IChBD fusion (human) (chain, as listed by the source V75I Q111D V75I Q111D): as the sequence (chain, as listed by the source K10N D70A K10N D70A) above, with N10K, A22D, V27I, Q35D counted along it
The target of assay [17] is Torpedo 39MIR peptide-intein-chitin-binding domain (IChBD) fusion protein (Torpedo). In words: Western blot of peptide-IChBD fusion (Table 3).
For assay [18], the target named is K10N human 39MIR mutant, IChBD fusion (human). The experiment in a line: Western blot.
Sequence of K10N human 39MIR mutant, IChBD fusion (human) (chain, as listed by the source K10N K10N): as the sequence (chain, as listed by the source K10N D70A K10N D70A) above, with A22D counted along it
The target of assay [19] is Q111D human 39MIR mutant, IChBD fusion (human). The experiment in a line: Western blot.
Sequence of Q111D human 39MIR mutant, IChBD fusion (human) (chain, as listed by the source Q111D Q111D): as the sequence (chain, as listed by the source K10N D70A K10N D70A) above, with N10K, A22D, Q35D counted along it
Assay [20] deals with V75I human 39MIR mutant, IChBD fusion (human). The experiment in a line: Western blot.
Sequence of V75I human 39MIR mutant, IChBD fusion (human) (chain, as listed by the source V75I V75I): as the sequence (chain, as listed by the source K10N D70A K10N D70A) above, with N10K, A22D, V27I counted along it
The target of assay [21] is Torpedo 39MIR peptide-intein-chitin-binding domain (IChBD) fusion protein (Torpedo). In words: Western blot (FIG. 3).
Assay [22] concerns the target K10N/D70A/V75I/Q111D human 39MIR quadruple mutant, IChBD fusion (human). In words: Western blot (FIG. 7).
Assay [23] has as its target K10N/V75I/Q111D human 39MIR triple mutant, IChBD fusion (human). The experiment in a line: Western blot (FIG. 7).
Assay [24] deals with Human 39MIR peptide-intein-chitin-binding domain (IChBD) fusion protein (human). In words: Western blot of peptide-IChBD fusion (FIG. 7).
Sequence of Human 39MIR peptide-intein-chitin-binding domain (IChBD) fusion protein (human) (chain, as listed by the source): as the sequence (chain, as listed by the source K10N D70A K10N D70A) above, with N10K, A22D counted along it
Assay [25] concerns the target D70A human 39MIR mutant, IChBD fusion (human). In words: Western blot of peptide-IChBD fusion (Table 3).
The target of assay [26] is Human 39MIR peptide-intein-chitin-binding domain (IChBD) fusion protein (human). The experiment in a line: Western blot of peptide-IChBD fusion (Table 3).
Assay [27] concerns the target K10N human 39MIR mutant, IChBD fusion (human). The experiment in a line: Western blot of peptide-IChBD fusion (Table 3).
In assay [28] the target is Q111D human 39MIR mutant, IChBD fusion (human). The experiment in a line: Western blot of peptide-IChBD fusion (Table 3).
In assay [29] the target is V75I human 39MIR mutant, IChBD fusion (human). In words: Western blot of peptide-IChBD fusion (Table 3).

Sequence of Torpedo 39MIR single mutant R79H, IChBD fusion (Torpedo) (chain, as listed by the source R79H R79H): as the sequence (chain, as listed by the source I75V I75V) above, with V27I, R31H counted along it
Sequence of Torpedo 39MIR peptide-intein-chitin-binding domain (IChBD) fusion protein (Torpedo) (chain, as listed by the source): as the sequence (chain, as listed by the source I75V I75V) above, with V27I counted along it
Sequence of K10N/Q111D human 39MIR double mutant, IChBD fusion (human) (chain, as listed by the source K10N Q111D K10N Q111D): as the sequence (chain, as listed by the source K10N D70A K10N D70A) above, with A22D, Q35D counted along it
Sequence of Torpedo 39MIR single mutant A70D, IChBD fusion (Torpedo) (chain, as listed by the source A70D A70D): as the sequence (chain, as listed by the source I75V I75V) above, with A22D, V27I counted along it
Sequence of Torpedo 39MIR single mutant L12F, IChBD fusion (Torpedo) (chain, as listed by the source L12F L12F): as the sequence (chain, as listed by the source I75V I75V) above, with L12F, V27I counted along it
Sequence of Torpedo 39MIR single mutant D111Q, IChBD fusion (Torpedo) (chain, as listed by the source D111Q D111Q): as the sequence (chain, as listed by the source I75V I75V) above, with V27I, D35Q counted along it
Sequence of D70A human 39MIR mutant, IChBD fusion (human) (chain, as listed by the source D70A D70A): as the sequence (chain, as listed by the source K10N D70A K10N D70A) above, with N10K counted along it

Consider mAb 132A (antibody), for which the fold-change in binding relative to Torpedo 39MIR in [1] is 1 fold; in assay [2] it was 0.2 fold; in assay [3], 0.07 fold; in assay [4], 0.06 fold; in assay [5] it was 0.4 fold; in [6], 1.1 fold. Further, the fold-change in binding relative to Torpedo 39MIR in [7] came out at 0.03 fold; in assay [8] it was 1.55 fold; in [9], 1.65 fold; in [10] it was 0.16 fold; in assay [11] it was 0.99 fold; in assay [12], 1.07 fold. The fold-change in binding relative to Torpedo 39MIR was determined as 1.25 fold in [13]; 2.46 fold in [14]; 1 fold in assay [15]; 3.34 fold in assay [16]; 1 fold in assay [17].

Regarding mAb 198 (antibody), the fold improvement in binding compared to the human 39MIR in assay [18] worked out at 13 fold; in assay [19] it was 35.7 fold; in assay [20] it was 40 fold; in [22], 11 fold; in [23], 28 fold. In assay [21], this substance gave a fold stronger binding than to the human MIR mimic of 50 fold. In addition, the fold-change in binding relative to Torpedo 39MIR in assay [1] came out at 1 fold; in [2], 1.08 fold; in [3], 0.16 fold; in assay [4], 0.16 fold; in assay [5], 1.07 fold; in assay [6], 0.9 fold. Moreover, the fold-change in binding relative to Torpedo 39MIR in [7] was 0.82 fold; in assay [8], 1.03 fold; in [9], 0.97 fold; in [24], 0.09 fold; in assay [10], 0.72 fold; in [11], 0.99 fold. The fold-change in binding relative to Torpedo 39MIR in [12] is 1.19 fold; in [13], 1.79 fold; in [14], 2.52 fold; in assay [15] it was 1 fold; in assay [16], 2.71 fold; in assay [25], 0.02 fold. Also, the fold-change in binding relative to Torpedo 39MIR in [26] stood at 0.02 fold; in assay [27], 0.23 fold; in [28] it was 0.59 fold; in assay [17] it was 1 fold; in assay [29], 0.65 fold.

With mAb 35 (antibody), the fold-change in binding relative to Torpedo 39MIR came to 1 fold in assay [1]; 0.93 fold in assay [2]; 1.42 fold in [6]; 0.29 fold in [7]; 0.62 fold in assay [8]; 1.91 fold in assay [9]. The fold-change in binding relative to Torpedo 39MIR in assay [10] was determined as 0.31 fold; in [11], 1.7 fold; in assay [12], 2.31 fold; in assay [13] it was 1.1 fold; in assay [14], 2.97 fold; in assay [15] it was 1 fold. The fold-change in binding relative to Torpedo 39MIR in assay [16] amounted to 0.92 fold; in [27] it was 0.01 fold; in assay [28], 0.06 fold; in assay [17] it was 1 fold; in assay [29], 0.03 fold.
